{"source": "paper PMC12525004", "about": "“Bacillus subtilis DinG 3′⟶5′ Exo(ribo)nuclease: A Helpmate to Mitigate Replication Stress” (International Journal of Molecular Sciences, 2025)", "binders": {"B1": {"name": "RecA (natural protein, B. subtilis, UniProt P16971 1-348, looked up)", "chain": "MSDRQAALDMALKQIEKQFGKGSIMKLGEKTDTRISTVPSGSLALDTALGIGGYPRGRIIEVYGPESSGKTTVALHAIAEVQQQGGQAAFIDAEHALDPVYAQKLGVNIEELLLSQPDTGEQALEIAEALVRSGAVDIVVVDSVAALVPKAEIEGDMGDSHVGLQARLMSQALRKLSGAINKSKTIAIFINQIREKVGVMFGNPETTPGGRALKFYSSVRLEVRRAEQLKQGNDVMGNKTKIKVVKNKVAPPFRTAEVDIMYGEGISKEGEIIDLGTELDIVQKSGSWYSYEEERLGQGRENAKQFLKENKDIMLMIQEQIREHYGLDNNGVVQQQAEETQEELEFEE", "notes": "RecA recombinase, Bacillus subtilis; overproduced from plasmid pBT61 in B. subtilis BG214; also called recombinase RecA"}}, "key": {"DinG D10A E12A": {"molecular_target": "T1, DinG D10A E12A (B. subtilis, UniProt P54394 1-931, D10A | E12A)", "T1 construct": "DinG, Bacillus subtilis, 931 aa, with codons 10 (Asp) and 12 (Glu) replaced by Ala; cloned into pET3a (pCB1259); also called exonuclease-deficient DinG; ExoI-deficient DinG variant; source: E. coli BL21(DE3) [pLysS] carrying pCB1259, purified by the same protocol as wt DinG", "T1 sequence (looked up)": "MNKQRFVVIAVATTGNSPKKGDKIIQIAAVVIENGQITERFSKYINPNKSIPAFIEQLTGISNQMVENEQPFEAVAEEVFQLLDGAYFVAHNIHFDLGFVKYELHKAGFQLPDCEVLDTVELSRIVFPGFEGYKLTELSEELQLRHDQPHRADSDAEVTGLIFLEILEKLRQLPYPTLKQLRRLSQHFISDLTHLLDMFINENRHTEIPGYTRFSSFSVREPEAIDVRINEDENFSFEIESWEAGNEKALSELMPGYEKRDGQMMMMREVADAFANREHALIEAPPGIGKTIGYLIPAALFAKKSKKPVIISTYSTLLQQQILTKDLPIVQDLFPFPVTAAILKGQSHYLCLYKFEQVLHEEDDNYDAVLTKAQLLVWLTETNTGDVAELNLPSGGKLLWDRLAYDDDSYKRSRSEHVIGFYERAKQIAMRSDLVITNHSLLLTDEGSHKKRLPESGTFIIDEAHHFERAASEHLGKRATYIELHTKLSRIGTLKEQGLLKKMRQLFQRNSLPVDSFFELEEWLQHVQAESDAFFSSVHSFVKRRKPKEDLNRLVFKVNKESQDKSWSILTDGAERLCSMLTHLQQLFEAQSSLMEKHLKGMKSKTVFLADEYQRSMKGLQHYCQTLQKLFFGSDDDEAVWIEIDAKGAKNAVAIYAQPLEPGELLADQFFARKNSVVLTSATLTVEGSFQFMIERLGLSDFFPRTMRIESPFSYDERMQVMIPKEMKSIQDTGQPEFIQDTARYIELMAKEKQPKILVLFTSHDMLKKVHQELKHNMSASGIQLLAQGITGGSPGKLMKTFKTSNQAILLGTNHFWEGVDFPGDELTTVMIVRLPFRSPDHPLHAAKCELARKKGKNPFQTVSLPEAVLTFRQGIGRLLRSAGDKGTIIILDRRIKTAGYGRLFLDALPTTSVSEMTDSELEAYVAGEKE", "assay": "far-Western, overlay or dot blot; immuno-dot blot: proteins (75-300 ng) spotted on nitrocellulose, blocked with 5% skimmed milk in PBS, incubated 6 h at 4 °C with 200 ng/ml RecA in PBS, 0.5% skimmed milk powder, 0.1% Triton X-100; washed; retained RecA detected with polyclonal anti-RecA antibody", "settings": "both partners purified"}, "DinG K290A": {"molecular_target": "T2, DinG K290A (B. subtilis, UniProt P54394 1-931, K290A)", "T2 construct": "DinG, Bacillus subtilis, 931 aa, with codon 290 (Lys, Walker A box) replaced by Ala; cloned into pET3a (pCB1260); also called ATPase-deficient DinG; source: E. coli BL21(DE3) [pLysS] carrying pCB1260, purified by the same protocol as wt DinG", "T2 sequence (looked up)": "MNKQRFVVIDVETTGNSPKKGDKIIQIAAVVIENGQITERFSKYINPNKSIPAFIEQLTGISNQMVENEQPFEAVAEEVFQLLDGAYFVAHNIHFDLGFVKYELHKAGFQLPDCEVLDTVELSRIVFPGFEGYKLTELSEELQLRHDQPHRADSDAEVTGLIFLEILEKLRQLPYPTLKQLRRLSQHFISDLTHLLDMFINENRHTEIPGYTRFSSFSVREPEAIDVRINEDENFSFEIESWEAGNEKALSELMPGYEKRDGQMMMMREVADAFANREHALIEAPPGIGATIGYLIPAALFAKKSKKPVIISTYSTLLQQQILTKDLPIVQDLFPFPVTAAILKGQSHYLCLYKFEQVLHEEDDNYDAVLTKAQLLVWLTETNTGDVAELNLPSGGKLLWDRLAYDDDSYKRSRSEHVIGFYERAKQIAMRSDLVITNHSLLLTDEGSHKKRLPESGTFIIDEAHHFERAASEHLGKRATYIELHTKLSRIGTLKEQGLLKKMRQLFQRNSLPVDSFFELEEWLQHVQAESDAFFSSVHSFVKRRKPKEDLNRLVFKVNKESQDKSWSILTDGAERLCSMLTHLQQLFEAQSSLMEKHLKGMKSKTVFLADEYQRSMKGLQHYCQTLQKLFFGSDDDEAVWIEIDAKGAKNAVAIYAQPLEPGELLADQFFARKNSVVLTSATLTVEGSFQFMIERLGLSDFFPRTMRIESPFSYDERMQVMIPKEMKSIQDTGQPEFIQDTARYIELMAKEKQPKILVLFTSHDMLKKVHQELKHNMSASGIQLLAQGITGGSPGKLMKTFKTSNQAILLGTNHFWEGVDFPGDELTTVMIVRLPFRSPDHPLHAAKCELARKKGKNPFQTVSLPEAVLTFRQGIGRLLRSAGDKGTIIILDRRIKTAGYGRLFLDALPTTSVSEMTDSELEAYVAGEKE", "assay": "far-Western, overlay or dot blot; immuno-dot blot: proteins (75-300 ng) spotted on nitrocellulose, blocked with 5% skimmed milk in PBS, incubated 6 h at 4 °C with 200 ng/ml RecA in PBS, 0.5% skimmed milk powder, 0.1% Triton X-100; washed; retained RecA detected with polyclonal anti-RecA antibody", "settings": "both partners purified"}, "RecA": {"molecular_target": "B1", "assay": "far-Western, overlay or dot blot; immuno-dot blot: proteins (75-300 ng) spotted on nitrocellulose, blocked with 5% skimmed milk in PBS, incubated 6 h at 4 °C with 200 ng/ml RecA in PBS, 0.5% skimmed milk powder, 0.1% Triton X-100; washed; retained RecA detected with polyclonal anti-RecA antibody", "settings": "both partners purified"}, "DinG [1]": {"molecular_target": "T3, DinG (Bacillus subtilis, UniProt P54394 1-931)", "T3 sequence": "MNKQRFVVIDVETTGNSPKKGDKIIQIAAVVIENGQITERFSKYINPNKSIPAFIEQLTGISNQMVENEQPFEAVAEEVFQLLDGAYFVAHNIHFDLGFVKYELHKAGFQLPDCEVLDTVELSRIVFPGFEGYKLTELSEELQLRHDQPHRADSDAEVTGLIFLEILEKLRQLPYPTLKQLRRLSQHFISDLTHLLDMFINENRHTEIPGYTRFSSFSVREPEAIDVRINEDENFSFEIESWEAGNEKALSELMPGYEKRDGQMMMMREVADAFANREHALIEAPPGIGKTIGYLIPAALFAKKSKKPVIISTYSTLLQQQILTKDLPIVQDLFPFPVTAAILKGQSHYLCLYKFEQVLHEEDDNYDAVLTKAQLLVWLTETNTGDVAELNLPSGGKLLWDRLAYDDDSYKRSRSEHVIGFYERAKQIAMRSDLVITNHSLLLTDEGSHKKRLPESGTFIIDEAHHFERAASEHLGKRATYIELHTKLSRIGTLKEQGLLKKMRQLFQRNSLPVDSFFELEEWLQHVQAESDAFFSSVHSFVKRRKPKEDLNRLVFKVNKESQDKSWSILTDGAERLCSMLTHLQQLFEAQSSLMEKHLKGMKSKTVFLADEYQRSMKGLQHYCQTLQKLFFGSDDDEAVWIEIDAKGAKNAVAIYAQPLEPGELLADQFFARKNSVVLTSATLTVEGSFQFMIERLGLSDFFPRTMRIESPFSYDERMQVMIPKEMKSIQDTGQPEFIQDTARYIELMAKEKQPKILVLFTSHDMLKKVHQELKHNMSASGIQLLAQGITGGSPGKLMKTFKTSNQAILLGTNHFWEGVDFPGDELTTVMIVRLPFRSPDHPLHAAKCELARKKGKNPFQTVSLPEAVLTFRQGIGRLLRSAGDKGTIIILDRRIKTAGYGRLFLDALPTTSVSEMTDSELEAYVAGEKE", "assay": "EMSA; 3 mM Mg2+; substrate degraded during assay; Kapp; EMSA, buffer D (composition not in material; 3 mM MgCl2, or 2 mM EDTA instead), 0.5 nM DNA, 37 °C, 10 min (text: 5 min), 15% native PAGE in TBE 1X; pH and salt", "settings": "protein: recombinant; tags: none stated (pET3a, untagged); label: 5'-32P; single strand"}, "DinG [2]": {"molecular_target": "T3, DinG", "assay": "EMSA; 2 mM EDTA, no metal; Kapp; text names lssDNA38, Methods and Fig S4 legend give lssDNA45; EMSA, buffer D (composition not in material; 3 mM MgCl2, or 2 mM EDTA instead), 0.5 nM DNA, 37 °C, 10 min (text: 5 min), 15% native PAGE in TBE 1X; pH and salt", "settings": "protein: recombinant; tags: none stated (pET3a, untagged); label: 5'-32P; single strand"}}}
{"binder": "B1", "values": [{"measurement": "binding result", "setting": "DinG D10A E12A", "result": "binds"}, {"measurement": "binding result", "setting": "DinG K290A", "result": "binds"}]}
{"binder": "RnhC (enzyme, B. subtilis, UniProt P94541 1-313, looked up, RnhC (RNase HIII), Bacillus subtilis; rnhC gene cloned into NdeI-linearised pET21b (pCB1242); also called RNase HIII; RnhC-His; source: E. coli BL21(DE3) [pLysS] carrying pCB1242 (rnhC-His), purified (Ni2+ His-Trap)) MSHSVIKVSLSAIDQMKMTYSGSLTASVPQGAVFQAKPPGCTITAYQSGKVLFQGKNAAAESARWGTAEPQEKKKTAKKPADPRYAPPADIAGMSVIGSDEVGTGDYFGPMTVVCAYVDKTMLPLMKELGVKDSKDLKDPQIIEIARNLIKTIPYSLLVLKNEKYNSMQEKGMSQGKMKALLHNQAITHLLRKLDGVKPEAILIDQFAEPGVYFNHLKGRDIVKERTYFSTKAEGIHLAVAAASIIARYSFLMEMDKLSRAAGMTLPKGAGPHVDEAAAKLILKKGASALRTFTKLHFANTQKAQRLADKKRS", "values": [{"measurement": "binding result", "setting": "RecA", "result": "binds"}]}
{"binder": "GTACGTATTCAAGATACCTCGTACTCTGTACTGACTCGGATCCTA (ssDNA, biotin-T at position 44 (second from 3' end))", "note": "[3'-Biotin gamma32P-lssDNA45]", "values": [{"measurement": "apparent K (half saturation)", "setting": "DinG [1]", "result": "< 0.08", "unit": "nM"}, {"measurement": "apparent K (half saturation)", "setting": "DinG [2]", "result": "~0.7", "unit": "nM"}]}
